Experiments:
[1] = biological target: CD22 on CD22-positive Raji or Ramos cells (human) (UniProt P20273); test: flow cytometry on CD22-positive Raji cells
[2] = biological target: CD33 on CD33-positive HL-60 cells (human, UniProt P20138); test: flow cytometry on HL-60 cells, 50:50 mixture; competitor: mouse anti-human CD33 reference mAb
Procedure: Binding to CD33-positive HL-60 cells were studied by flow cytometry. The determination of EC₅₀ based on the plotted curve gives an approximate value for the affinity.
The mAb or conjugate to be analyzed was prepared fresh form frozen stock by shifting the storage buffer to PBS, kept at 4° C., and used within a few days after preparation. […] The secondary antibody reagent was prepared at 0.015 mg/mL in PBS, supplemented with 0.1% BSA. The mAb stock was diluted in 10-fold dilution steps, starting from 5 mg/mL. An isotype control mAb (trastuzumab) was prepared accordingly. 20 uL from each dilution step of the anti-human CD33 mAb was added to wells containing HL-60 cells. After incubation for 1 h at 4° C. the cells were spun down and washed three times with 200 μl cold PBS, supplemented with 0.1% BSA. A solution containing 4% goat serum was added as a blocking agent, and incubated for 15 minutes. 20 μl from the secondary antibody reagent was subsequently added to each well, before incubation for 30 min at 4° C. in the dark.
The cells were washed twice, as described above, and re-suspended in 200 μL PBS, supplemented with 0.1% BSA. All samples were analysed in 96-well round or conical bottom plates. Fluorescent signals were recorded on a Beckham Coulter Cell lab Quant SC flow cytometer (Beckman Coulter; CA, USA). […]

“AGC1100 (anti-CD22 monoclonal antibody hLL2, also called epratuzumab)” showed an EC50 [1] of 9 nM.

B1: AGC1115 (AGC1100 conjugated to the water soluble chelator AGC0015) (antibody, INN chains, looked up, V domains shown)
VH: QVQLVQSGAEVKKPGSSVKVSCKASGYTFTSYWLHWVRQAPGQGLEWIGYINPRNDYTEYNQNFKDKATITADESTNTAYMELSSLRSEDTAFYFCARRDITTFYWGQGTTVTVSS
VL: DIQLTQSPSSLSASVGDRVTMSCKSSQSVLYSANHKNYLAWYQQKPGKAPKLLIYWASTRESGVPSRFSGSGSGTDFTFTISSLQPEDIATYYCHQYLSSWTFGGGTKLEIK
modifications: conjugated to chelator AGC0015
With B1 the EC50 [1] was 6 nM.

B2: AGC0700 (anti-CD33 monoclonal antibody, generated from the HuM195 template) (antibody, V domains shown)
VH: QVQLVQSGAEVKKPGSSVKVSCKASGYTFTDYNMHWVRQAPGQGLEWIGYIYPYNGGTGYNQKFKSKATITADESTNTAYMELSSLRSEDTAVYYCARGRPAMDYWGQGTLVTVSS
VL: DIQMTQSPSSLSASVGDRVTITCRASESVDNYGISFMNWFQQKPGKAPKLLIYAASNQGSGVPSRFSGSGSGTDFTLTISSLQPDDFATYYCQQSKEVPWTFGQGTKVEIKR
For B2, the “fold less antibody bound” value [2] was roughly 0.7 fold.

Reference: patent US20150110817A1, “RADIO-PHARMACEUTICAL COMPLEXES” (published 2015)
